Laboratory results from patent US20170342169A1 (published 2017).

What was measured:
[1] = molecular target: T1, human CD40 on cells (HEK293 transfectants, HEK-Blue CD40 reporter cells, human B cells, moDC, PBMC) (human, UniProt P25942 21-277); assay: cell-based or functional assay
[2] = molecular target: CD40 (binding assays of Example 4; species and form not stated) (UniProt P25942 21-193, limits assumed); assay: antigen binding, method not stated
[3] = molecular target: T1, human CD40 on cells (HEK293 …); assay: cell-based or functional assay; remark: listed apart in the source
cynomolgus 4-1BB = cynomolgus 4-1BB (cynomolgus); assay: SPR
[4] = molecular target: T2, MSLN (Table 10-1; species and form not stated); assay: antigen binding, method not stated
T2 construct: also called mesothelin
T2 sequence (Q13421 37-606): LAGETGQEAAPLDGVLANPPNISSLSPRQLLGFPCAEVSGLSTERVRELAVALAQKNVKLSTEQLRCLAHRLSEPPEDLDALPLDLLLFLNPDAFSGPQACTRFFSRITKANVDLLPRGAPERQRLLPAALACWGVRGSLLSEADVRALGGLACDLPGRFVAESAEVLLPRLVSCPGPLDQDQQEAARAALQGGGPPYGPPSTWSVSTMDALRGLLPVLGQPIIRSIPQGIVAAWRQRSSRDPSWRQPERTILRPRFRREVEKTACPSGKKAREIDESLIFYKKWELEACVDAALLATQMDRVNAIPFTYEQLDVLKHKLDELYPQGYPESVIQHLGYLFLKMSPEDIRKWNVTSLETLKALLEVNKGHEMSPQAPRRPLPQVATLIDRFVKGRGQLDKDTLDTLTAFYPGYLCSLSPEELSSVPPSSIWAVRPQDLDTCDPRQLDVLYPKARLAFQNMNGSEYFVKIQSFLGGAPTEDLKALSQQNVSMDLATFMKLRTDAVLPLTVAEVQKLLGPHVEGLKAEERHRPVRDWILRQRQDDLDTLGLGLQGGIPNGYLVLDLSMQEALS

T1 sequence (P25942 21-277 limits assumed): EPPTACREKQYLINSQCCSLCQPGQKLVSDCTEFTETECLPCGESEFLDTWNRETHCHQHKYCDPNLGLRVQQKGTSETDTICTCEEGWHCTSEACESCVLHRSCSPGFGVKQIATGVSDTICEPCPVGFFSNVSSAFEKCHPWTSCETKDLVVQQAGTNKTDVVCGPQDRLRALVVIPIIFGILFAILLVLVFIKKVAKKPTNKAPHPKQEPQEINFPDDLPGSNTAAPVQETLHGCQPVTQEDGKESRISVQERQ
Chain of CD40 (binding assays of Example 4; species and form not stated) (P25942 21-193 limits assumed): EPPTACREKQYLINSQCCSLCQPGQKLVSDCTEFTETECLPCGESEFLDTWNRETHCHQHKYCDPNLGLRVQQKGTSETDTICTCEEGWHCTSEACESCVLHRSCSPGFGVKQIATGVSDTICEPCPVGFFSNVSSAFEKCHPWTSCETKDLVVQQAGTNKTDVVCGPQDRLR

B1: huAb9-5 (antibody, human IgG1, kappa)
heavy: not shown
light: DAVMTQTPLSLSVTPGQPASISCRSSQSLENTNGNTFLNWYLQKPGQSPQLLIYRVSNRFSGVPDRFSGSGSGTDFTLKISRVEAEDVGVYYCLQVTHVPFTFGQGTKLEIKRTVAAPSVFIFPPSDEQLKSGTASVVCLLNNFYPREAKVQWKVDNALQSGNSQESVTEQDSKDSTYSLSSTLTLSKADYEKHKVYACEVTHQGLSSPVTKSFNRGEC
notes: human IgG1, kappa
- Maximal activation (OD655) [1]: 0.67 OD655
- EC50 [2]: 0.2 µg/mL

B2: CF1 (bispecific antibody, human IgG1, lambda)
heavy: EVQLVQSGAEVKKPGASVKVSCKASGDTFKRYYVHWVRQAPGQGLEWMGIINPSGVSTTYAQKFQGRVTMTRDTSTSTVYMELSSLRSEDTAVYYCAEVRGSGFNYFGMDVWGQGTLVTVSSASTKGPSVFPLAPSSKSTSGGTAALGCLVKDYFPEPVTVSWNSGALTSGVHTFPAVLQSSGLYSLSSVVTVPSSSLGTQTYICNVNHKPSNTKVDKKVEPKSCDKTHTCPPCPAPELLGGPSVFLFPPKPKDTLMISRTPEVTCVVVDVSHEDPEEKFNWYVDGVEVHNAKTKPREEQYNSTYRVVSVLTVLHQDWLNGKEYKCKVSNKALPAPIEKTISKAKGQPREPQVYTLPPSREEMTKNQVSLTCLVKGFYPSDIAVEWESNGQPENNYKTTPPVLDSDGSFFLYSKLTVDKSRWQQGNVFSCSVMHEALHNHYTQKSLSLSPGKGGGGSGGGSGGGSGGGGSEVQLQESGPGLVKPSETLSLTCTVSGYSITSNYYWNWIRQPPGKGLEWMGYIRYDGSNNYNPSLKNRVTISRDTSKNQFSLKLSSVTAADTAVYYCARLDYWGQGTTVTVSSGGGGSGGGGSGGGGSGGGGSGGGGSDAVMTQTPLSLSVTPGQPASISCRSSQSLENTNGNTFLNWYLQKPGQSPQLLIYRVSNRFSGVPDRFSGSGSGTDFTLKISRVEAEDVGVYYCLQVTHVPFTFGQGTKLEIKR
light: SYELTQPPSVSVSPGQTASITCSGDKLGDKYASWYQQKPGQSPVLVIYQDNRRPSGIPERFSGSNSGNTATLTISGTQAMDEADYYCQAWDSDTYVFGTGTKVTVLGQPKAAPSVTLFPPSSEELQANKATLVCLISDFYPGAVTVAWKADSSPVKAGVETTTPSKQSNNKYAASSYLSLTPEQWKSHRSYSCQVTHEGSTVEKTVAPTECS
- Max. IL-12p70, dendritic cells [3]: 100 pg/mL

B3: CF3 (bispecific antibody, human IgG1, lambda)
heavy: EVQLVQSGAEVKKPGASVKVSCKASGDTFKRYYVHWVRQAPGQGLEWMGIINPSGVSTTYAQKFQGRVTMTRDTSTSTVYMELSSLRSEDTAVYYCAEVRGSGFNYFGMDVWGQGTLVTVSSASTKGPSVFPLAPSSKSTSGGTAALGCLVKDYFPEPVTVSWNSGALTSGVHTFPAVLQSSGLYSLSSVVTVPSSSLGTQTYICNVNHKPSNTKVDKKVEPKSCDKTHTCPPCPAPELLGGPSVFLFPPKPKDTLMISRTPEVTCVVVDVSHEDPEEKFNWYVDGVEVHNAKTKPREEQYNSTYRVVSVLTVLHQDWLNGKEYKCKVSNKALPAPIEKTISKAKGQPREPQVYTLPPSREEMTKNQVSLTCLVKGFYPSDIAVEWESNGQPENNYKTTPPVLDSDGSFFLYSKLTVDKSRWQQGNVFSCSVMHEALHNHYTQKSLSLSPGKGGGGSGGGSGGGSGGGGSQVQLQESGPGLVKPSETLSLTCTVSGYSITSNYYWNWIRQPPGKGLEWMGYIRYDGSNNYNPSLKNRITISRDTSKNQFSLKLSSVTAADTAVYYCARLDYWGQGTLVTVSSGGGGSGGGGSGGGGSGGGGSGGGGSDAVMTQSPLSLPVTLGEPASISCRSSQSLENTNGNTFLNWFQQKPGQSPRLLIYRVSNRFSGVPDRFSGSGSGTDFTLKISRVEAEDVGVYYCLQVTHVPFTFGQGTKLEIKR
light: SYELTQPPSVSVSPGQTASITCSGDKLGDKYASWYQQKPGQSPVLVIYQDNRRPSGIPERFSGSNSGNTATLTISGTQAMDEADYYCQAWDSDTYVFGTGTKVTVLGQPKAAPSVTLFPPSSEELQANKATLVCLISDFYPGAVTVAWKADSSPVKAGVETTTPSKQSNNKYAASSYLSLTPEQWKSHRSYSCQVTHEGSTVEKTVAPTECS
- Max. IL-12p70, dendritic cells [3]: 75 pg/mL

B4: huAb8-1 (antibody, human IgG1, V domains shown)
VH: EVQLVQSGAEVKKPGSSVKVSCKASGYTFTDYYINWVRQAPGQGLEWIGWIFPGSGSVYCNEQFKGRATLTVDRSTSTAYMELSSLRSEDTAVYFCASSLGKFAYWGQGTLVTVSS
VL: DIQMTQSPSSLSASVGDRVTITCKASQSVVTAVAWYQQKPGKSPKLLIYSASNRYTGVPSRFSGSGSGTDFTLTISSLQPEDFATYFCQQYSSYPYTFGGGTKVEIK
- Maximal activation (OD655) [1]: 0.45 OD655
- EC50 [2]: 0.4 µg/mL

B5: TABBY106-rIgG1 (antibody, V domains shown)
VH: QVQLQQSGAELAKPGTSVKLSCKASGYTFTSYYIYWVKQRPGQGLEWIGNIWPGNGGTFYGEKFMGKATFTADTSSSTAYMLLGSLTPEDSAYYFCARRPDYSGDDYFDYWGQGVLVTVSS
VL: QVVLTQPKSVSTSLKSTVKLSCKLNSGNIGSYYVHWYQQHAGRSPTTMIYRDDKRPDGVPDRFSGSIDSSSNSAFLTINNVQTEDDAIYFCHSYDSTITPVFGGGTKLTVL
notes: Rat IgG1, lambda
- Kd (cynomolgus 4-1BB): 18 nM
- koff (cynomolgus 4-1BB): 0.022 s⁻¹
- kon (cynomolgus 4-1BB): 1.2e+06 M⁻¹ s⁻¹

B6: TABBY107-rIgG1 (antibody, V domains shown)
VH: QVKLVQSGAALVKPGASVKMSCKASDYTFNDYWVSWVKQRHGESLEWIGEIYPNSGATNFNGKFRGKATLTVDNPTSTAYMELSRLTSEDSAIYYCTREYTRDWFAYWGQGTLVTVSS
VL: DVVLTQTPSILSATIGQSVSISCRSSQSLLDSDGNTYLYWFLQRPGQSPQRLIYLVSNLGSGVPNRFSGSGSGTDFTLKISGVEAEDLGIYYCMQPTHAPYTFGAGTKLELK
notes: Rat IgG1, kappa
- Kd (cynomolgus 4-1BB): 0.36 nM
- koff (cynomolgus 4-1BB): 0.00013 s⁻¹
- kon (cynomolgus 4-1BB): 350000 M⁻¹ s⁻¹

B7: B39 (bispecific antibody, IgG2)
chain: EVQLQESGPGLVKPSETLSLTCTVSGYSITSNYYWNWIRQPPGKGLEWMGYIRYDGSNNYNPSLKNRVTISRDTSKNQFSLKLSSVTAADTAVYYCARLDYWGQGTTVTVSSDLSGGGGSGGGGSGGGGSGGGGSTGDAVMTQTPLSLSVTPGQPASISCRSSQSLENTNGNTFLNWYLQKPGQSPQLLIYRVSNRFSGVPDRFSGSGSGTDFTLKISRVEAEDVGVYYCLQVTHVPFTFGQGTKLEIKRVERKSSVECPPCPAPPVAGPSVFLFPPKPKDTLMISRTPEVTCVVVDVSHEDPEVQFNWYVDGVEVHNAKTKPREEQFNSTFRVVSVLTVVHQDWLNGKEYKCKVSNKGLPAPIEKTISKTKGQPREPQVYTLPPSREEMTKNQVSLTCLVKGFYPSDIAVEWESNGQPENNYKTTPPMLDSDGSFFLYSKLTVDKSRWQQGNVFSCSVMHEALHNHYTQKSLSLSPGKVDGASSPVNVSSPSVQDIEVQLVQSGAEVKKPGASVKVSCKASGDTFKRYYVHWVRQAPGQGLEWMGIINPSGVSTTYAQKFQGRVTMTRDTSTSTVYMELSSLRSEDTAVYYCAEVRGSGFNYFGMDVWGQGTLVTVSSDLSGGGGSGGGGSGGGGSGGGGSTGSYELTQPPSVSVSPGQTASITCSGDKLGDKYASWYQQKPGQSPVLVIYQDNRRPSGIPERFSGSNSGNTATLTISGTQAMDEADYYCQAWDSDTYVFGTGTKVTVLGQ
notes: huAb9-5 (VH-VL) N-terminal, HuAM15 (VH-VL) C-terminal, huIgG2
- EC50 [2]: 0.5 µg/mL

B8: LB-1 (bispecific antibody, mouse IgG1)
chain: EVQLVESGGGLVQPGRSLKLSCAASGFTFSNYDMAWVRQAPTKGLEWVASISPSGGRTYYRDSVKGRFTVSRDNAKSTLYLQMDSLRSEDTATYYCARHDGSYFDYWGQGVMVTVSSDLSGGGGSGGGGSGGGGSGGGGSTGDTVLTQSPALAVSPGERVTISCRASESVSTLMHWYQQKPGQQPKLLIYLASHLESGVPARFSGSGSGTDFTLTIDPVEADDTATYYCQESWNDPWTFGGGTKLELKRLEVPRDSGSKPCICTVPEVSSVFIFPPKPKDVLTITLTPKVTCVVVDISKDDPEVQFSWFVDDVEVHTAQTQPREEQFNSTFRSVSELPIMHQDWLNGKEFKCRVNSAAFPAPIEKTISKTKGRPKAPQVYTIPPPKEQMAKDKVSLTCMITDFFPEDITVEWQWNGQPAENYKNTQPIMDTDGSYFVYSKLNVQKSNWEAGNTFTCSVLHEGLHNHHTEKSLSHSPGKVDGASSPVNVSSPSVQDIQVQLVQSGAEVKKPGASVKVSCKASGYTFTGNYINWVRQAPGQGLEWMGIINPTKGWTLYAQKFQGRVTMTRDTSISTAYMELSSLRSEDTAVYYCARWHHGTWIFDYWGQGTLVTVSSDLSGGGGSGGGGSGGGGSGGGGSTGDIVLTQPPSVSGAPGQRVTISCSGSSSNIGSNYVSWYQQLPGTAPKLLIYNDNQRPSGVPDRFSGSKSGTSASLAITGLQSEDEADYYCSTYDRRTFSVFGGGTKLTVLG
notes: 1C10 scFv (VH-VL), murine IgG1 hinge-CH2-CH3, MOR06626 scFv (VH-VL)
- EC50 [4]: 1.39 µg/mL

B9: anti-MSLN antibody (MOR06626 mIgG1) (antibody, V domains shown)
VH: QVQLVQSGAEVKKPGASVKVSCKASGYTFTGNYINWVRQAPGQGLEWMGIINPTKGWTLYAQKFQGRVTMTRDTSISTAYMELSSLRSEDTAVYYCARWHHGTWIFDYWGQGTLVTVSS
VL: DIVLTQPPSVSGAPGQRVTISCSGSSSNIGSNYVSWYQQLPGTAPKLLIYNDNQRPSGVPDRFSGSKSGTSASLAITGLQSEDEADYYCSTYDRRTFSVFGGGTKLTVLG
- EC50 [4]: 0.06 µg/mL
